Tests used:
Assay in all cases: cell-based or functional assay
[1] = biological target: Kv2.1 K+ channel P406D mutant (rat) (UniProt P15387)
[2] = biological target: Shaker H4 K+ channel, N-terminal deletion 6-46, P475D mutant (Drosophila) (UniProt P08510)
[3] = biological target: Shaker H4 K+ channel, N-terminal deletion 6-46, P475E mutant (Drosophila) (UniProt P08510)
[4] = biological target: Shaker H4 K+ channel, N-terminal deletion 6-46, P475H mutant (Drosophila) (UniProt P08510)
[5] = biological target: Shaker H4 K+ channel, N-terminal deletion 6-46, P475K mutant (Drosophila) (UniProt P08510)

Measured: block of channel current (two-electrode voltage clamp, Xenopus oocytes); concentration called saturating

Chain of Shaker H4 K+ channel, N-terminal deletion 6-46, P475E mutant (Drosophila) (P08510 whole entry P475E): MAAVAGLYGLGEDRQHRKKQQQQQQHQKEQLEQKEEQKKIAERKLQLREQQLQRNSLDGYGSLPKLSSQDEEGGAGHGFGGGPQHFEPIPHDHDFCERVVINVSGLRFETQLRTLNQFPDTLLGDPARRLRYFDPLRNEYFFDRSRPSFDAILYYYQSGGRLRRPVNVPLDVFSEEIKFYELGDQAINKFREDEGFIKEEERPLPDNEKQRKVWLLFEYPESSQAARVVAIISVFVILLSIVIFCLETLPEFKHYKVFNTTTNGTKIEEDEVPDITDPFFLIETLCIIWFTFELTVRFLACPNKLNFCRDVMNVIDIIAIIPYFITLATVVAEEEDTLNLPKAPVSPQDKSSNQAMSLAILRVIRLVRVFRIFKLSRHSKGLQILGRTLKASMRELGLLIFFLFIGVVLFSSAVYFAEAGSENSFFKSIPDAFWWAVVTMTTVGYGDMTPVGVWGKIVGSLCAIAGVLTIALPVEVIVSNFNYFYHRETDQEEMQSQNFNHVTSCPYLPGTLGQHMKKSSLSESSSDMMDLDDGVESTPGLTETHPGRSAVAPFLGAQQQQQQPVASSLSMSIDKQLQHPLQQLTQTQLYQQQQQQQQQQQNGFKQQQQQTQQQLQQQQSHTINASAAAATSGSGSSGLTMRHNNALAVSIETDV
Chain of Shaker H4 K+ channel, N-terminal deletion 6-46, P475K mutant (Drosophila) (P08510 whole entry P475K): as the sequence (P08510 whole entry P475E) above, with E475K counted along it
Chain of Shaker H4 K+ channel, N-terminal deletion 6-46, P475H mutant (Drosophila) (P08510 whole entry P475H): as the sequence (P08510 whole entry P475E) above, with E475H counted along it
Chain of Shaker H4 K+ channel, N-terminal deletion 6-46, P475D mutant (Drosophila) (P08510 whole entry P475D): as the sequence (P08510 whole entry P475E) above, with E475D counted along it

agitoxin2 (from UniProt P46111 1-38) (peptide)
1 µM: all assays above
